Measured values published in US20110171194A1 (TRUSTEES OF COLUMBIA UNIVERSITY IN THE CITY OF NEW YORK, published 2011).

Target: T1, Aβ(1-42) (UniProt P05067 672-713)
T1 construct: domain: Aβ(1-42); Residue numbers count on Aβ, not on APP
Assay: 125I-labeled GST-ABAD truncation binding to immobilized Aβ(1-42)

T1 sequence (P05067 672-713 limits assumed): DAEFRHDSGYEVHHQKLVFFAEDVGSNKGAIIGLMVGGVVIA

binding result: no binding
B1: GST-ABAD(159-261) (other, UniProt Q99714 159-261, looked up)
chain: FEGQVGQAAYSASKGGIVGMTLPIARDLAPIGIRVMTIAPGLFGTPLLTSLPEKVCNFLASQVPFPSRLGDPAEYAHLVQAIIENPFLNGEVIRLDGAIRMQP
modifications: 125I-labeled
notes: not shown: glutathione S-transferase (GST) tag
